Blank lines part the entries; values can stand above or below the substance they belong to.
Tests used:
[1] = target: TGFBIp A546T (residues 45–632) (human) (UniProt Q15582); test: SEC; calibrated SEC, Superdex 200 Increase 10/300 GL in PBS; TGFBIp at 7 μM
[2] = target: TGFBIp R124H (residues 45–632) (human) (UniProt Q15582); test: in-line SEC-SAXS; in-line Superdex Increase 200 3.2/300 in 20 mM Tris, 150 mM NaCl, pH 7.4; ~0.5 to 1 mg/ml; rigid-body modeling
[3] = target: TGFBIp R124H (residues 45–632) (human) (UniProt Q15582); test: SEC; calibrated SEC, Superdex 200 Increase 10/300 GL in PBS; TGFBIp at 7 μM
[4] = target: TGFBIp R555W (residues 45–632) (human) (UniProt Q15582); test: in-line SEC-SAXS; in-line Superdex Increase 200 3.2/300 in 20 mM Tris, 150 mM NaCl, pH 7.4; ~0.5 to 1 mg/ml; rigid-body modeling
[5] = target: TGFBIp R555W (residues 45–632) (human) (UniProt Q15582); test: SEC; calibrated SEC, Superdex 200 Increase 10/300 GL in PBS; TGFBIp at 7 μM
[6] = target: wildtype transforming growth factor-β–induced protein (TGFBIp), residues 45–632 (human) (UniProt Q15582); test: in-line SEC-SAXS; in-line Superdex Increase 200 3.2/300 in 20 mM Tris, 150 mM NaCl, pH 7.4; ~0.5 to 1 mg/ml; rigid-body modeling
[7] = target: wildtype transforming growth factor-β–induced protein (TGFBIp), residues 45–632 (human) (UniProt Q15582); test: SEC; calibrated SEC, Superdex 200 Increase 10/300 GL in PBS; TGFBIp at 7 μM

- stoichiometry N [1]: 2
Substance: TGFBIp A546T (residues 45–632) (from UniProt Q15582 45-632) (domain or fragment)

- stoichiometry N [2]: 2
- stoichiometry N [3]: 2
Substance: TGFBIp R124H (residues 45–632) (from UniProt Q15582 45-632) (domain or fragment)

- stoichiometry N [4]: 2
- stoichiometry N [5]: 2
Substance: TGFBIp R555W (residues 45–632) (from UniProt Q15582 45-632) (domain or fragment)

- stoichiometry N [6]: 2
- stoichiometry N [7]: 2
Substance: wildtype transforming growth factor-β–induced protein (TGFBIp), residues 45–632 (from UniProt Q15582 45-632) (domain or fragment)
